Experimental data from US20260028608A1.
Like-named read-outs stand apart in the source and are kept apart here.

What was measured:
Experiment in all cases: cell-based or functional assay
[1] = target: XGEVA (Amgen), human IgG2
[2] = target: Humira (Abbvie), human IgG1
[3] = target: Humira (Abbvie), human IgG1; remark: listed apart in the source
[4] = target: XGEVA (Amgen), human IgG2; remark: listed apart in the source
[5] = target: human IgG3 from Sigma (15654 Lot #SLBW0899) (human)
[6] = target: human IgG4 from Abcam (ab90286 Lot #GR3180469) (human)

With “IdeS (Immunoglobulin G-degrading enzyme of S. pyogenes), control polypeptide pCART124” the Conc. of enzyme for cleavage of 1st IgG2 heavy chain, IgG to scIgG (SDS-PAGE) [1] was 10 ng/mL, the Conc. of enzyme for cleavage of 2nd IgG2 heavy chain, scIgG to F(ab)2 (SDS-PAGE) [1] was 400 ng/mL and the Conc. of enzyme for cleavage of 1st IgG1 heavy chain, IgG to scIgG (SDS-PAGE) [2] was 1.5 ng/mL. It also gave a Conc. of enzyme for cleavage of 2nd IgG1 heavy chain, scIgG to F(ab')2 (SDS-PAGE) [2] of 120 ng/mL, an Approximate EC50 value, i.e. equal amounts of scIgG and F(ab')2 (SDS-PAGE) [3] of 120 ng/mL and a Conc. of enzyme for cleavage of 1st IgG1 heavy chain, IgG to scIgG (SDS-PAGE) [3] of 4.5 ng/mL. The Conc. of enzyme for cleavage of 2nd IgG1 heavy chain, scIgG to F(ab')2 (SDS-PAGE) [3] was 400 ng/mL, the IgG1 EC50 F(ab')2 (SDS-PAGE, visual estimate) [3] was 80 ng/mL and the IgG1 EC50 scIgG (SDS-PAGE, visual estimate) [3] was 1 ng/mL. For the same substance, the fold of EC50 F(ab')2 for IgG1, IdeS against N240 [3] was 5 fold, the Conc. of enzyme for cleavage of 1st IgG2 heavy chain, IgG to scIgG (SDS-PAGE) [4] was 40 ng/mL and the Conc. of enzyme for cleavage of 2nd IgG2 heavy chain, scIgG to F(ab)2 (SDS-PAGE) [4] was 1100 ng/mL. For the same substance, the IgG2 EC50 F(ab')2 (SDS-PAGE, visual estimate) [4] was 120 ng/mL, the IgG2 EC50 scIgG (SDS-PAGE, visual estimate) [4] was 3 ng/mL and the IgG3 EC50 F(ab')2 (SDS-PAGE, visual estimate) [5] was 15 ng/mL. For the same substance, the IgG3 EC50 scIgG (SDS-PAGE, visual estimate) [5] was 2.2 ng/mL, the IgG4 EC50 F(ab')2 (SDS-PAGE, visual estimate) [6] was 180 ng/mL and the IgG4 EC50 scIgG (SDS-PAGE, visual estimate) [6] was 2 ng/mL.
